Reference: US20140193915, “COMPOSITIONS AND METHODS FOR CUSTOM SITE-SPECIFIC DNA RECOMBINASES” (Monsanto Technology, LLC, published 2014)
Positions count from the first letter of the chain named.

B1: R47 (8bp) (dsDNA)
DNA 1: AGAAGGTATTTATATCTCTGACCATGGTCACACTTATAAATACCTTCT
DNA 2: B1 DNA 1 with T15A, C16G, C18G, C31G, C33G, T34A
B2: Gin20TALE+3 (dsDNA)
DNA 1: AGAAGGTATTTATATAATCCAAAACCATGGTTTACAGGTATATAAATACCTTCT
DNA 2: AGAAGGTATTTATATACCTGTAAACCATGGTTTTGGATTATATAAATACCTTCT
B3: Gin20TALE+1 (dsDNA)
DNA 1: AGAAGGTATTTATATTCCAAAACCATGGTTTACAGATATAAATACCTTCT
DNA 2: AGAAGGTATTTATATCTGTAAACCATGGTTTTGGAATATAAATACCTTCT
B4: Gin20TALE+10 (dsDNA)
DNA 1: AGAAGGTATTTATATAGGCACTTATCCAAAACCATGGTTTACAGGACCACGGTATATAAATACCTTCT
DNA 2: AGAAGGTATTTATATACCGTGGTCCTGTAAACCATGGTTTTGGATAAGTGCCTATATAAATACCTTCT
B5: Gin20TALE+4 (dsDNA)
DNA 1: AGAAGGTATTTATATATATCCAAAACCATGGTTTACAGGCTATATAAATACCTTCT
DNA 2: AGAAGGTATTTATATAGCCTGTAAACCATGGTTTTGGATATATATAAATACCTTCT
B6: Gin20TALE+2 (dsDNA)
DNA 1: AGAAGGTATTTATATATCCAAAACCATGGTTTACAGTATATAAATACCTTCT
DNA 2: AGAAGGTATTTATATACTGTAAACCATGGTTTTGGATATATAAATACCTTCT
B7: Gin20TALE+9 (dsDNA)
DNA 1: AGAAGGTATTTATATAGGCATTATCCAAAACCATGGTTTACAGGACACGGTATATAAATACCTTCT
DNA 2: AGAAGGTATTTATATACCGTGTCCTGTAAACCATGGTTTTGGATAATGCCTATATAAATACCTTCT
B8: Gin20TALE+7 (dsDNA)
DNA 1: AGAAGGTATTTATATAGGTTATCCAAAACCATGGTTTACAGGACGGTATATAAATACCTTCT
DNA 2: AGAAGGTATTTATATACCGTCCTGTAAACCATGGTTTTGGATAACCTATATAAATACCTTCT
B9: Gin20TALE+6 (dsDNA)
DNA 1: AGAAGGTATTTATATAGTTATCCAAAACCATGGTTTACAGGACGTATATAAATACCTTCT
DNA 2: AGAAGGTATTTATATACGTCCTGTAAACCATGGTTTTGGATAACTATATAAATACCTTCT

Biological target: T1, pN-TALER IV-1-EE2 (GinL7C7-EE2-TALE13) (synthetic)
T1 chain: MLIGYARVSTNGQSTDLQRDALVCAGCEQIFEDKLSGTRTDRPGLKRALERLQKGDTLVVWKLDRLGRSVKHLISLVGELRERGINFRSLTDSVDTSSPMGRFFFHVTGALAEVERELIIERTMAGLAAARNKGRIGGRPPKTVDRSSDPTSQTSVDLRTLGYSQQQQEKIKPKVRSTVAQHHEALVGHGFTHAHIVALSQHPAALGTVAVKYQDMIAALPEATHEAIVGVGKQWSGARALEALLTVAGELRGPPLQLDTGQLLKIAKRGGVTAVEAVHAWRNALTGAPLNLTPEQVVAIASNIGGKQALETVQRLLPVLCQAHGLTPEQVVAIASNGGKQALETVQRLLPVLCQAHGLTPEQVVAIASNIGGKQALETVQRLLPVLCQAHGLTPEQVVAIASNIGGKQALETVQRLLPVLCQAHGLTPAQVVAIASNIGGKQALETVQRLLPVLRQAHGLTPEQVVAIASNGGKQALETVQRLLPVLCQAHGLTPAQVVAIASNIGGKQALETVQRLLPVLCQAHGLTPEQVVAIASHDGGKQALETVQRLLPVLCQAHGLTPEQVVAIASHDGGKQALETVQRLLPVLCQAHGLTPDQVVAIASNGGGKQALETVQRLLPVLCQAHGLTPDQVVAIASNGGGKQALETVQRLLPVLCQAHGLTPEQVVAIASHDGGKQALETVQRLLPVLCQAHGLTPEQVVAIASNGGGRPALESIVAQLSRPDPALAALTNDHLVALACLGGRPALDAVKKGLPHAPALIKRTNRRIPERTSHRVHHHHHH
Experiment: cell_activity; E. coli
Conditions: tags: 6-His
Description: To determine how much of the Gin20 sequence is required for recombination when the central sequence is maintained at a permitted length, N-TALER reporters were generated with a 20 bp recombinase central sequence between the TALE binding sites, where either the central 12 bp, or the central 10 bp, or the central 8 bp of the recombinase core sequence were held constant, and the remaining nucleotides were different from the Gin sequence. The N-TALER reporter with 12 bp was designated R45, the N-TALER reporter with 10 bp was designated R46, and the N-TALER reporter with 8 bp was designated R47. A N-TALER reporter with a 10 bp site 1 and a 12 bp site 2 was designated R46B, and a N-TALER reporter with a T and an A flanking the central AT di-nucleotide was designated R48 (see Table 33). The various reporters, including the pSC101 Gin20TALE13+0 were co-transformed with either sN-TALER-IV-1 or pN-TALER-IV-1 and recombination, as determined by colony color, was scored (Table 33). For purposes of comparison, the GinE site that was used in the generation of the GinL7C7-EE2 recombinase domain (Gersbach et al., 2010) was also included.
To confirm that white colonies resulted from recombination, the colonies were analyzed by colony PCR and sequencing of the PCR product. For the reporter that retained 12 bp from the Gin site, 8 of 8 colonies analyzed had the predicted recombination product for both the sN-TALER-IV-1 chimera and the pN-TALER-IV-1chimera (16 colonies total analyzed, 8 each). Likewise, for the reporter that retained 8 bp from the Gin site co-transformed with the pN-TALER-IV-1 chimera, 14 of 14 colonies analyzed had the predicted recombination product.

Q: Which activity does the source give for B1 here?
A: Its activity is 1.5 score.

Biological target: T2, sN-TALER IV-2 (GinH106Y-TALE13) (synthetic)
T2 chain: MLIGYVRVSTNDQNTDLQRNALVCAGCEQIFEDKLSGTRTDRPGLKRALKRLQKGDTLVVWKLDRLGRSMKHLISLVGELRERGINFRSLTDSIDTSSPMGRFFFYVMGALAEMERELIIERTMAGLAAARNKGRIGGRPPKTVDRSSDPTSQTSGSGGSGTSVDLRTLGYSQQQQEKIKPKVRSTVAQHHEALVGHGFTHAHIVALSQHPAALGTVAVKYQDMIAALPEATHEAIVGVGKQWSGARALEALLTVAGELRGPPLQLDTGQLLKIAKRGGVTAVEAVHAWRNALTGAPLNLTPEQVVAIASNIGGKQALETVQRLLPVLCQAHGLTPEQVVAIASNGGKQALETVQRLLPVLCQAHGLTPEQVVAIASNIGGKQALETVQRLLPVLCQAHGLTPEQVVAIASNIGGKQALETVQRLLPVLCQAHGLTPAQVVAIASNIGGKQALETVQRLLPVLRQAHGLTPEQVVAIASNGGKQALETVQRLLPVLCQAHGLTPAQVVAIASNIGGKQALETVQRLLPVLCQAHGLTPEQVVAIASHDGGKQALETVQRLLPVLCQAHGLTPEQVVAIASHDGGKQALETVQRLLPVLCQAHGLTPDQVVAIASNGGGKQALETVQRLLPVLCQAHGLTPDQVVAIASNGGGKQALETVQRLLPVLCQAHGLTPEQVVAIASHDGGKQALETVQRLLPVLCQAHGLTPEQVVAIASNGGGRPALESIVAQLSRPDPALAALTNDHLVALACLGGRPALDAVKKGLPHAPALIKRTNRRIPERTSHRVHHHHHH
Experiment: cell_activity; E. coli
Conditions: tags: 6-His
Protocol: (§1) To test for recombination, E. coli DH5alpha cells were co-transformed with different combinations of TALER expression construct and TALER reporter construct pairs (Tables 6 and 7). The N-TALER expression and reporter constructs were in an approximate 1:1 mass ratio during the transformation. The co-transformed bacteria were plated on media with chloramphenicol, kanamycin, and X-gal then incubated at 37° C. for 18 to 36 hours. Control samples consisted of transformations using the reporter construct alone. Control transformants were similarly plated. The bacterial transformation protocol was either heat shock or electroporation per standard molecular biology techniques.

Q: How did the activity turn out when B2 was run?
A: Its activity is 3 score.

Q: Which activity does the source give for B3 here?
A: The activity was 1 score.

Q: For B4, which activity is on record?
A: Its activity is 1 score.

Q: Which activity does the source give for B5 here?
A: Its activity is 4 score.

Biological target: T3, sN-TALER IV-1 (GinH106Y-TALE13) (synthetic)
T3 chain: T1 chain with A6V, G12D, S14N, D20N, E50K, V70M, V94I, H106Y, T108M, V114M
Experiment: cell_activity; E. coli
Conditions: tags: 6-His; chain copies: 2 per site, tetramer in synapsis (stated)
Protocol: as §1

Q: How did the activity turn out when B2 was run?
A: Its activity is 3 score.

Q: For B3, which activity is on record?
A: Its activity is 2 score.

Q: With B6 as the binder, how does the activity read?
A: The activity was 3 score.

Q: B7 was tested. Which activity did it give?
A: The activity was 2 score.

Biological target: T1, pN-TALER IV-1-EE2 (GinL7C7-EE2-TALE13)
Experiment: cell_activity; E. coli
Conditions: tags: 6-His
Remark: another data set of the same source
Protocol: as §1
Two additional N-TALERs, based on N-TALER IV-1, were constructed wherein the GinH106Y recombinase catalytic domain was replaced with either the GinL7C7-EE2 catalytic domain or the GinL7C7-EE3 permissive recombinase catalytic domain. These N-TALERs were labeled pN-TALER IV-1-EE2 (SEQ ID NO:41) and pN-TALER IV-1-EE3 (SEQ ID NO:45), respectively. pN-TALER IV-1-EE2 was tested in combination with seventeen N-TALER reporter constructs and pN-TALER IV-1-EE3 was tested with three reporter constructs (Table 10).

Q: Which activity does the source give for B2 here?
A: The activity was 1 score.

Q: B8 was tested. Which activity did it give?
A: Its activity is 2.5 score.

Q: With B3 as the binder, how does the activity read?
A: The activity was 1 score.

Q: Which activity does the source give for B6 here?
A: Its activity is 1 score.

Q: B4 was tested. Which activity did it give?
A: The activity was 1 score.

Q: B9 was tested. Which activity did it give?
A: The activity was 2 score.

Q: B5 was tested. Which activity did it give?
A: The activity was 1.5 score.

Q: With B7 as the binder, how does the activity read?
A: The activity was 2 score.

Biological target: T3, sN-TALER IV-1 (GinH106Y-TALE13)
Experiment: cell_activity; E. coli; sequenced
Conditions: tags: 6-His; chain copies: 2 per site, tetramer in synapsis (stated)
Protocol: as §1
PCR was used to confirm that the predicted recombination had occurred in colonies which were white or sectored. PCR primers were designed so that a PCR product of approximately 877 bp (depending on the length of the spacers) would be produced from the non-recombined reporter constructs, and a PCR product of approximately 470 bp would be produced from reporter constructs that had undergone N-TALER-mediated recombination. Standard colony PCR was performed on white, blue, and sectored colonies from several plates representing different pairs of N-TALER expression construct and reporter construct co-transformation combinations.
To confirm that the recombination occurred as predicted, several of the PCR products were sequenced. Sequencing results for PCR products generated from white colonies from the sN-TALER IV-1 and Gin18TALE+1; sN-TALER IV-1 and Gin20TALE+0; or sN-TALER IV-1 and Gin20TALE+10 reporter constructs are shown in FIG. 7. No mismatches were detected relative to the predicted recombinase core sequence in any of the PCR products sequenced thereby confirming a base-perfect recombination with N-TALERs (the few single-nucleotide mismatches detected in the sN-TALER IV-1 and Gin20TALE+0 combination were rechecked and consequently dismissed as sequencing error).

Q: How did the activity turn out when B4 was run?
A: The activity was 1.5 score.
